Experimental data reported in patent US8026218.
Bridge positions count the residues as written; N and C are the ends. Square brackets hold non-standard residues; d marks the D form. Primed or numbered codes have the meaning given here. Ends that are not written are not given here. * marks the point of attachment. NMeBn(CF3)2 = C-terminal N-methyl bis(trifluoromethyl)benzyl amide; Glc = O-glucosyl on Ser side chain (Ser(OGlu)/Ser(OGlc)); NH(3,5-(CF3)2-benzyl) = FC(F)(F)c1cc(CN*)cc(C(F)(F)F)c1; OBzl(3,5-(CF3)2) = FC(F)(F)c1cc(CO*)cc(C(F)(F)F)c1; Glc″ = glucosyl on the serine side-chain oxygen; O‑Bzl(CF3)2(3) = C-terminal O-Bzl(CF3)2 ester; NH‑Bn(CF3)2 = C-terminal Bn(CF3)2 amide; Dmt = Cc1cc(O)cc(C)c1C[C@H](N)C(=O)O; Met(O) = CS(=O)CC[C@H](N)C(=O)O; Nle = CCCC[C@H](N)C(=O)O; Aib = CC(C)(N)C(=O)O; OBn = c1ccc(CO*)cc1

Experiments:
Assay in all cases: cell-based or functional assay
[1] = molecular target: δ opioid receptor of the mouse isolated vas deferens (mouse), P32300
Sequence of δ opioid receptor of the mouse isolated vas deferens (mouse), P32300 (P32300 whole entry, stated change not applied): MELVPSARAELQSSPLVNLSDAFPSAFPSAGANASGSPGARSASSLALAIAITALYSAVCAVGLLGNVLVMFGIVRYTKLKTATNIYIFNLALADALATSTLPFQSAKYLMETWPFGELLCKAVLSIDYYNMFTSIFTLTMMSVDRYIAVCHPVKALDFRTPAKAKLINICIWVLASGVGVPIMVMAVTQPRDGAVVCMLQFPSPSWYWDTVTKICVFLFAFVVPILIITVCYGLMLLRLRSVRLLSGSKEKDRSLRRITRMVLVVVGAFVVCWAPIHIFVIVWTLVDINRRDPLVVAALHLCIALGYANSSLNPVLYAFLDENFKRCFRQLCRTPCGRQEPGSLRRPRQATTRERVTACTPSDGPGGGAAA

[2] = molecular target: δ opioid receptor of the mouse isolated vas deferens (mouse) (UniProt P32300)
Sequence of δ opioid receptor of the mouse isolated vas deferens (mouse) (P32300 whole entry, stated change not applied): as above

[3] = molecular target: guinea pig NK1 receptor (guinea pig) (UniProt P30547)
Sequence of guinea pig NK1 receptor (guinea pig) (P30547 whole entry): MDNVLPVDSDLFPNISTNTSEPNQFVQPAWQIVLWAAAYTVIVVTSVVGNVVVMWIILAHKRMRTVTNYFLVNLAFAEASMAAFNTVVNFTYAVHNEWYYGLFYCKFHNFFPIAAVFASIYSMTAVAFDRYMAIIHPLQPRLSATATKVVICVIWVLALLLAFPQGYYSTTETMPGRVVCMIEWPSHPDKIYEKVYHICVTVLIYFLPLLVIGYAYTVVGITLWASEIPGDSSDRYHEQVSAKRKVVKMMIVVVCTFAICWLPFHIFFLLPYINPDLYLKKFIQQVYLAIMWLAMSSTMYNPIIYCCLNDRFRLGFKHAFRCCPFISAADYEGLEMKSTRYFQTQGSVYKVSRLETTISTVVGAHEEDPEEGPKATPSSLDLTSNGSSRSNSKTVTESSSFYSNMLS

B1: Tyr[DCysGlyPheNleProCys]TrpNHBn(CF3)2 (peptide)
peptide: Y[dC]GF[Nle]PCW-{NH(3,5-(CF3)2-benzyl)}
modifications: disulfide 2-7
MVD (δ) IC50 [1]: 85 nM

B2: TyrDAlaGlyPheMet(O)ProLeuTrpOBn(CF3)2 (TY023) (peptide)
peptide: YAGFMPLW
modifications: here or on the partner: D-Ala at 2; Met(O) (oxidized methionine) at 5; C-terminal O-3,5-Bn(CF3)2 ester
MVD opioid(delta) agonist IC50 [1]: 33 nM

B3: TyrDAlaGlyPheDPheProLeuTrpOBn(CF3)2 (TY007) (peptide)
peptide: Y[dA]GF[dF]PLW-{OBzl(3,5-(CF3)2)}
MVD opioid(delta) agonist IC50 [1]: 412 nM

B4: TyrDAlaGlyPheMetProLeuTrpNMeBn(CF3)2 (TY028) (peptide)
peptide: Y[dA]GFMPLW-{NMeBn(CF3)2}
MVD opioid(delta) agonist IC50 [1]: 11.2 nM

B5: H-Tyr-D-Ala-Gly-Phe-Phe-Pro-Leu-Trp-O-3,5-Bzl(CF3)2 (peptide)
peptide: H-Y[dA]GFFPLW-{OBzl(3,5-(CF3)2)}
modifications: also: TFA salt
MVD (δ) opioid agonist IC50 [1]: 905 nM

B6: TyrDAlaGlyPheNleProLeuTrpOBn(CF3)2 (TY018) (peptide)
peptide: YAGFXPLW
modifications: here or on the partner: D-Ala at 2; Nle (norleucine) at 5 (X); C-terminal O-3,5-Bn(CF3)2 ester
MVD opioid(delta) agonist IC50 [1]: 16.8 nM

B7: TyrDAlaGlyPheNleSer(OGlu)LeuTrpNHBn(CF3)2 (peptide)
peptide: Y[dA]GF[Nle]S(Glc″)LW-{NH(3,5-(CF3)2-benzyl)}
MVD IC50 [1]: 18 nM

B8: DmtDAlaGlyPheMetProLeuTrpNHBn(CF3)2 (peptide)
peptide: [Dmt][dA]GFMPLW-{NH(3,5-(CF3)2-benzyl)}
MVD IC50 [1]: 1.8 nM

B9: H-Tyr-D-Ala-Gly-Phe-Met(O)-Pro-Leu-Trp-O-3,5-Bzl(CF3)2 (peptide)
peptide: H-Y[dA]GF[Met(O)]PLW-{OBzl(3,5-(CF3)2)}
modifications: also: TFA salt
MVD (δ) opioid agonist IC50 [1]: 33 nM

B10: Tyr[DCysGlyPheCys]ProLeuTrpNHBn(CF3)2 (peptide)
peptide: Y[dC]GFCPLW-{NH(3,5-(CF3)2-benzyl)}
modifications: disulfide 2-5
MVD (δ) IC50 [1]: 73 nM

B11: TyrDAlaGlyPheMetProLeuTrpNHBn(CF3)2 (peptide)
peptide: Y[dA]GFMPLW-{NH(3,5-(CF3)2-benzyl)}
MVD IC50 [1]: 14.5 nM

B12: Tyr[DCysGlyPheCys]ProLeuTrpNHBn(CF3)2 (TY039) (peptide)
peptide: Y[dC]GFCPLW-{NH(3,5-(CF3)2-benzyl)}
modifications: disulfide 2-5
MVD opioid(delta) agonist IC50 [1]: 73.1 nM

B13: TyrDAlaGlyPhePheProLeuTrpOBn(CF3)2 (peptide)
peptide: Y[dA]GFFPLW-{OBzl(3,5-(CF3)2)}
MVD IC50 [1]: 905 nM

B14: TyrDAlaGlyPheNleProSer(OGlu)TrpNHBn(CF3)2 (TY041) (peptide)
peptide: Y[dA]GF[Nle]PS(Glc)W-{NH‑Bn(CF3)2}
MVD opioid(delta) agonist IC50 [1]: 12.7 nM

B15: TyrDAlaGlyPheGlyProLeuTrpOBn(CF3)2 (peptide)
peptide: Y[dA]GFGPLW-{OBzl(3,5-(CF3)2)}
modifications: also: TFA salt
MVD IC50 [1]: 172 nM

B16: TyrDAlaGlyPheMet(O)ProLeuTrpOBn(CF3)2 (peptide)
peptide: YAGFMPLW
modifications: here or on the partner: D-Ala at 2; Met(O) at 5; C-terminal O-3,5-Bzl(CF3)2 ester
MVD IC50 [1]: 33 nM

B17: Tyr-D-Ala-Gly-Trp-O-3′,5′(CF3)2-Bzl (NP44) (peptide)
peptide: Y[dA]GW-{OBzl(3,5-(CF3)2)}
MVD δ-agonist IC50 [2]: 303 nM | GPI SP-antagonist Ke [3]: 5 nM

B18: TyrDAlaGlyPheMetProLeuTrpOBn (TY029) (peptide)
peptide: Y[dA]GFMPLW-OBn
MVD opioid(delta) agonist IC50 [1]: 7.62 nM

B19: TyrDAlaGlyPhePheProLeuTrpOBn(CF3)2 (TY003) (peptide)
peptide: Y[dA]GFFPLW-{OBzl(3,5-(CF3)2)}
MVD opioid(delta) agonist IC50 [1]: 905 nM

B20: DmtDAlaGlyPheMetProLeuTrpNHBn(CF3)2 (TY032) (peptide)
peptide: [Dmt][dA]GFMPLW-{NH(3,5-(CF3)2-benzyl)}
MVD opioid(delta) agonist IC50 [1]: 1.82 nM

B21: H-Tyr-D-Ala-Gly-Phe-Nle-Pro-Leu-Trp-O-3,5-Bzl(CF3)2 (peptide)
peptide: YAGFXPLW
modifications: here or on the partner: D-Ala at 2; Nle (norleucine, written X) at 5; C-terminal 3,5-bis(trifluoromethyl)benzyl ester
MVD (δ) opioid agonist IC50 [1]: 16.8 nM

B22: TyrDAlaGlyPheNleProLeuSer(OGlu)TrpNHBn(CF3)2 (TY055) (peptide)
peptide: Y[dA]GF[Nle]PLS(Glc)W-{NH‑Bn(CF3)2}
MVD opioid(delta) agonist IC50 [1]: 17.4 nM

B23: H-Tyr-D-Ala-Gly-Phe-D-Phe-Pro-Leu-Trp-O-3,5-Bzl(CF3)2 (peptide)
peptide: H-Y[dA]GF[dF]PLW-{OBzl(3,5-(CF3)2)}
modifications: also: TFA salt
MVD (δ) opioid agonist IC50 [1]: 412 nM

B24: TyrDCysGlyPheMetProLeuTrpOBn(CF3)2 (TY031) (peptide)
peptide: Y[dC]GFMPLW-{OBzl(3,5-(CF3)2)}
MVD opioid(delta) agonist IC50 [1]: 235 nM

B25: Tyr-DAla-Gly-Phe-Aib-Trp-O-Bzl(CF3)2 (NP41) (peptide)
peptide: Y[dA]GF[Aib]W-{O‑Bzl(CF3)2(3)}
MVD δ-agonist IC50 [2]: 36.2 nM

B26: TyrDAlaGlyPheNleProLeuTrpNHBn(CF3)2 (peptide)
peptide: YAGFXPLW
modifications: here or on the partner: D-Ala at 2; Nle at 5 (written X); C-terminal NH-3,5-Bzl(CF3)2 amide
MVD IC50 [1]: 13.6 nM

B27: TyrDAlaGlyPheDPheProLeuTrpOBn(CF3)2 (peptide)
peptide: Y[dA]GF[dF]PLW-{OBzl(3,5-(CF3)2)}
MVD IC50 [1]: 412 nM

B28: Tyr[DCysGlyPheNleProDCys]TrpNHBn(CF3)2 (peptide)
peptide: Y[dC]GF[Nle]P[dC]W-{NH(3,5-(CF3)2-benzyl)}
modifications: disulfide 2-7
MVD (δ) IC50 [1]: 19 nM

B29: Tyr-DAla-Gly-Phe-Pro-Trp-O-Bzl(CF3)2 (NP39) (peptide)
peptide: Y[dA]GFPW-{O‑Bzl(CF3)2}
MVD δ-agonist IC50 [2]: 84.6 nM | GPI/LMMP SP antagonist Ke [3]: 1.8 nM
